Experimental findings from patent US20180016325 are described below.

Data set [1] deals with MP-LAFG-PABC-(piperazinoBOR) LA-104 as antibody conjugate AAC-193.
In data set [2] the target is thioFAB 4497 MP-LAFAA-QSY7.
In data set [3] the target is thioFAB S4497-MC-GGAFAGGG-(pipBOR).
Data set [4] has as its target thioFAB 4497 MP-LAFGA-QSY7.

B1: staphopain A (protein)
chain: YNEQYVNKLENFKIRETQGNNGWCAGYTMSALLNATYNTNKYHAEAVMRFLHPNLQGQQFQFTGLTPREMIYFEQTQGRSPQLLNRMTTYNEVDNLTKNNKGIAILGSRVESRNGMHAGHAMAVVGNAKLNNGQEVIIIWNPWDNGFMTQDAKNNVIPVSNGDHYQWYSSIYGY
With B1, in data set [1], the Percent cleavage pH 5 was determined as 100%; the Percent cleavage pH 7.2 worked out at 46%; the “percent cleavage at pH 7.2” value was “Staphopain A showed 100% cleavage at pH5 and 64% cleavage at pH 7.2”.

B2: staphopain B (protein)
chain: DQVQYENTLKNFKIREQQFDNSWCAGFSMAALLNATKNTDTYNAHDIMRTLYPEVSEQDLPNCATFPNQMIEYGKSQGRDIHYQEGVPSYNQVDQLTKDNVGIMILAQSVSQNPNDPHLGHALAVVGNAKINDQEKLIYWNPWDTELSIQDADSSLLHLSFNRDYNWYGSMIGY
With B2, the Percent cleavage pH 7.2 in data set [2], in data set [1] and in data set [4] was 100% each time. In data set [1], this protein showed a Percent cleavage pH 5 of 100%. The “cleavage of the linker (LC-MS)” value in data set [3] is reported as “Staphopain B was found to cleave the linker at the same site as the active protease purified from Wood46 supernatant”.
